From publication PMC10397247 come the findings set out here.

What all share (assay): two-hybrid library CCNG1;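 further: natural log of median RNA to DNA barcode read ratio; higher means stronger binding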
The target in one test is T1, 4H2518-bA.
T1 chain: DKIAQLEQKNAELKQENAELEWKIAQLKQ

A further test has as its target T2, 4H2585-bA.
T2 chain: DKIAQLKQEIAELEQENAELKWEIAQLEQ

In a further test the target is T3, 4H264-bA.
T3 chain: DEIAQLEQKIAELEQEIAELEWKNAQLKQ

A further test concerns the target T4, 4H2760-bA.
T4 chain: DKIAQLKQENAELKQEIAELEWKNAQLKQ

In the next test the target is T5, 4H2859-bA.
T5 chain: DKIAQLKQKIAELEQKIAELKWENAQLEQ

The target of another test is T6, 4H2931-bA.
T6 chain: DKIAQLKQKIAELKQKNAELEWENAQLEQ

The target of the next test is T7, 4H3041-bA.
T7 chain: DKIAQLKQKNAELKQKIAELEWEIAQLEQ

Another test deals with T8, 4H3297-bA.
T8 chain: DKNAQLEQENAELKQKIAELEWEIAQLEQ

A further test addresses T9, 4H3364-bA.
T9 chain: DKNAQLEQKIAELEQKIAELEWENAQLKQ

The target in another test is T10, 4H3381-bA.
T10 chain: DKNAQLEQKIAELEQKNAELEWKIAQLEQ

A further test addresses T11, 4H349-bA.
T11 chain: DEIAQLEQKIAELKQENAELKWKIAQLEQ

Another test concerns the target T12, 4H56-bA.
T12 chain: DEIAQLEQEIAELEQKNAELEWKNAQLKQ

The target in the next test is T13, 4H730-bA.
T13 chain: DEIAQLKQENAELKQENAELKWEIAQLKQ

Another test deals with T14, 4H796-bA.
T14 chain: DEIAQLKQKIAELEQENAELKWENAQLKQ

The target in another test is T15, 4H932-bA.
T15 chain: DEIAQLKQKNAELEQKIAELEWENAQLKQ

The next test addresses T16, 4H949-bA.
T16 chain: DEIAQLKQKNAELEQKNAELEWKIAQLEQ

The target of another test is T17, O8-bN.
T17 chain: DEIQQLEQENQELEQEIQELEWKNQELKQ

For the next test, the target named is T18, P4A.
T18 chain: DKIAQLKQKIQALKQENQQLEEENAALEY

In another test the target is T19, 4H2503-bN.
T19 chain: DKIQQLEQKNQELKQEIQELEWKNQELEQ

The target of another test is T20, 4H2588-bN.
T20 chain: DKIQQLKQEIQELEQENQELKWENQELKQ

For the next test, the target named is T21, 4H2692-bN.
T21 chain: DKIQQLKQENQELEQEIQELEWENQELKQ

The target in another test is T22, 4H2717-bN.
T22 chain: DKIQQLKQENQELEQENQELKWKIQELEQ

The target in a further test is T23, 4H2839-bN.
T23 chain: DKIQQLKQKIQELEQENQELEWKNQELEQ

The target in the next test is T24, 4H2915-bN.
T24 chain: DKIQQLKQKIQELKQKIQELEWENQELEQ

For a further test, the target named is T25, 4H3057-bN.
T25 chain: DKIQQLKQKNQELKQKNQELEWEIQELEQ

For another test, the target named is T26, 4H319-bN.
T26 chain: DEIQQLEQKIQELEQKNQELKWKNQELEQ

Another test concerns the target T27, 4H3277-bN.
T27 chain: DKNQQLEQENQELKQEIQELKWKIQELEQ

A further test has as its target T28, 4H348-bN.
T28 chain: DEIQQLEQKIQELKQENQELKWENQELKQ

Another test has as its target T29, 4H40-bN.
T29 chain: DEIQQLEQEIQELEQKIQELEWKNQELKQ

The target of a further test is T30, 4H477-bN.
T30 chain: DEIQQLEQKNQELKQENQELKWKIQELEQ

For a further test, the target named is T31, 4H492-bN.
T31 chain: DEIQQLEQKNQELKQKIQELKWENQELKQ

In another test the target is T32, 4H741-bN.
T32 chain: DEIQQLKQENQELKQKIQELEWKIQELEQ

Another test concerns the target T33, O4-bS.
T33 chain: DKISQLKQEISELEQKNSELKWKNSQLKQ

In the next test the target is T34, P4A-bN.
T34 chain: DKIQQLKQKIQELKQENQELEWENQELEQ

The next test addresses T35, P6A-bN.
T35 chain: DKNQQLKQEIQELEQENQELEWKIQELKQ

For another test, the target named is T36, P7A-bN.
T36 chain: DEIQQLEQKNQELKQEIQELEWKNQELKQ

The target in another test is T37, P8A-bN.
T37 chain: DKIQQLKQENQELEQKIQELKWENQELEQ

Another test concerns the target T38, P9A-bN.
T38 chain: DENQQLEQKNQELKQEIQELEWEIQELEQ

B1: 4H2518-bA (peptide)
chain: DKIAQLEQKNAELKQENAELEWKIAQLKQ
Turning to B1, the interaction score was 0.343 with 4H2518-bA; -0.589 in the test with 4H2585-bA; -1 with 4H264-bA; -0.635 with 4H2760-bA; -0.00645 in the test with 4H2859-bA; -0.288 in the test with 4H2931-bA. Further, the interaction score in the test with 4H3041-bA is 0.486; in the test with 4H3297-bA it was -0.628; in the test with 4H3364-bA, -0.361; with 4H3381-bA, -0.773; in the test with 4H349-bA it was -0.372; with 4H56-bA, -1.52. Moreover, the interaction score with 4H730-bA was -0.626; with 4H796-bA, -1.33; with 4H932-bA, -1.08; with 4H949-bA it was -0.976; in the test with O8-bN, -2.05; with P4A it was -1.32.

B2: 4H2503-bN (peptide)
chain: DKIQQLEQKNQELKQEIQELEWKNQELEQ
As to B2, the interaction score was -0.645 in the test with 4H2503-bN; 0.453 with 4H2588-bN; -2.06 with 4H2692-bN; -1.42 in the test with 4H2717-bN; -0.436 in the test with 4H2839-bN; -0.299 with 4H2915-bN. Also, the interaction score is -0.657 in the test with 4H3057-bN; -0.708 with 4H319-bN; 0.0524 in the test with 4H3277-bN; 0.419 in the test with 4H348-bN; -0.263 in the test with 4H40-bN; -0.639 in the test with 4H477-bN. The interaction score was 0.186 in the test with 4H492-bN, -0.327 in the test with 4H741-bN and -1.2 with O4-bS.

B3: P4A-bN (peptide)
chain: DKIQQLKQKIQELKQENQELEWENQELEQ
In the case of B3, the interaction score with P4A-bN is -1.26; in the test with P6A-bN, -1.54; with P7A-bN, -1.45; with P8A-bN, -0.841; in the test with P9A-bN, -0.681.
